Laboratory results reported in the supplement of paper PMC10724198.
± gives the standard deviation of the averaged measurements.

These sequences were tested on Saccharomyces cerevisiae (assay: protein stability index of tFT-peptide fusion (C-terminal peptide) (PSI (0-1 scale)); higher = more stable (slower turnover)). Details: genetic background: wild type; temperature: 30 C.
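Further: PSI is a weighted mean of sequencing reads over stability bins, variants kept only with over 10 reads, mCherry proximal and sfGFP distal, peptide attached via GGGS linker.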

| Sequence | protein stability index |
| --- | --- |
| SVYLKLSECRSV | 0.6877 ± 0.0018 |
| SVYLPFPSGLLL | 0.728 ± 0.073 |
| SWTEPISNTVLP | 0.77 ± 0.034 |
| SYGWYRVRLLDC | 0.57 ± 0.088 |
| SYLWRINVSGCV | 0.6955 ± 0.0013 |
| SYPTRSKSAYSL | 0.652 ± 0.059 |
| SYSSILPPLSSA | 0.686 ± 0.022 |
| SYVLIYAPLSSL | 0.661 ± 0.036 |
| SYVYMIQRANAV | 0.5609 ± 0.004 |
| TAATLVYKQNQK | 0.66 ± 0.12 |
| TAKGSSIMCVKI | 0.729 ± 0.05 |
| TAPPPSQTPPRT | 0.684 ± 0.0076 |
| TAPSGIYFSLPL | 0.66 ± 0.054 |
| TARSTSPHHIPR | 0.835 ± 0.22 |
| TASAGLVAAATI | 0.668 ± 0.034 |
| TCPPAPSTGPST | 0.648 ± 0.0073 |
| TCTIQSEDFHEI | 0.707 ± 0.063 |
| TDNIRIERYKEQ | 0.689 ± 0.064 |
| TDWCPQSCVCSL | 0.647 ± 0.051 |
| TDYSSPKTSLSR | 0.668 ± 0.056 |
| TEEVRVRVQTEL | 0.663 ± 0.035 |
| TESGVCWCRREV | 0.685 ± 0.04 |
| TEVWERGKNVGE | 0.635 ± 0.03 |

| Sequence | protein stability index |
| --- | --- |
| TEWIRGTAVNSS | 0.701 ± 0.023 |
| TEYRRRPNETAM | 0.705 ± 0.037 |
| TFIKMEKKKDGG | 0.663 ± 0.034 |
| TFLMEMVPRLFI | 0.664 ± 0.036 |
| TFLPPTTSPYVL | 0.738 ± 0.052 |
| TFPPSAPQSSCS | 0.7041 ± 0.0027 |
| TFPRRCILNIQI | 0.635 ± 0.024 |
| TFQMAYHSRTAV | 0.637 ± 0.13 |
| TFREMPESIGNG | 0.654 ± 0.047 |
| TFSFPSPAPHSC | 0.781 ± 0.033 |
| TFSHRVICTGND | 0.733 ± 0.072 |
| TFSPPLSSPPGP | 0.706 ± 0.032 |
| TGEVSTRVGQRE | 0.66 ± 0.07 |
| TGIDLPHFVSLF | 0.658 ± 0.088 |
| TGKWRSFQAYYY | 0.667 ± 0.039 |
| TGNSPSRTGNGI | 0.647 ± 0.018 |
| TGSKKKKVEIEM | 0.679 ± 0.048 |
| TGSRHDLDGSMK | 0.679 ± 0.017 |
| TGWRFVRSKGGS | 0.741 ± 0.045 |
| THCSGAGPPSPP | 0.689 ± 0.068 |
| THKGAPTCRSAR | 0.6723 ± 0.0037 |
| THLASTESVVRP | 0.69 ± 0.033 |
| THPPATSPPPYP | 0.6631 ± 0.0057 |

| Sequence | protein stability index |
| --- | --- |
| THTPPPSPLTLP | 0.671 ± 0.021 |
| THTTIQKTNQNE | 0.703 ± 0.026 |
| TIASGCTWSPGH | 0.645 ± 0.013 |
| TIDACFHSDWGC | 0.782 ± 0.11 |
| TIELNLPPSVVR | 0.642 ± 0.037 |
| TIGPVRSGHVLA | 0.6807 ± 0.0055 |
| TIIRQRHYAPNL | 0.6771 ± 0.0056 |
| TIMRGEPGQSHF | 0.741 ± 0.089 |
| TIPSSSQVPIGG | 0.641 ± 0.021 |
| TKEEDKNEGRRR | 0.662 ± 0.055 |
| TKFSSPPLVRTS | 0.71 ± 0.031 |
| TKKNKLRQKKTE | 0.6457 ± 0.0028 |
| TKLKKKGTKKKR | 0.662 ± 0.018 |
| TKPTRPVSPTHL | 0.693 ± 0.12 |
| TKQSKRKHESRT | 0.671 ± 0.044 |
| TKRLLPPRTVAI | 0.696 ± 0.066 |
| TKRRKKIPENRI | 0.6649 ± 0.0049 |
| TKSPYLTVNETA | 0.686 ± 0.055 |
| TKSRKWEERENQ | 0.682 ± 0.013 |
| TKTKKKTQEGSR | 0.739 ± 0.1 |
| TLFSVGSDAMIV | 0.708 ± 0.041 |
| TLFTRRSIMKGN | 0.62 ± 0.068 |
| TLGLTLSAFALT | 0.635 ± 0.043 |

| Sequence | protein stability index |
| --- | --- |
| TLLAALIRFDAV | 0.691 ± 0.041 |
| TLLAPPAPTPAG | 0.684 ± 0.036 |
| TLLPPACFPTPP | 0.717 ± 0.017 |
| TLPARPSVPLPP | 0.629 ± 0.06 |
| TLPSPPSPSPRP | 0.679 ± 0.085 |
| TLQKKLTVNTKK | 0.738 ± 0.11 |
| TLRPKASPPAAL | 0.642 ± 0.021 |
| TLRTPGFSSSLH | 0.721 ± 0.025 |
| TLSPPLPPPSPS | 0.66129 ± 0.00029 |
| TLSSLVGACLYV | 0.614 ± 0.038 |
| TNGVNHIDAHGQ | 0.645 ± 0.018 |
| TNKKEPTMTRKK | 0.72528 ± 0.00042 |
| TNNLRLKVIGPK | 0.653 ± 0.021 |
| TNQITRHELTTY | 0.599 ± 0.043 |
| TNRNGQQRWEKG | 0.64 ± 0.0078 |
| TNRRSRLQVSSN | 0.635 ± 0.08 |
| TPAMPRNPTDDS | 0.651 ± 0.0068 |
| TPAPLLPRRTPP | 0.734 ± 0.073 |
| TPCSRMRPSLLF | 0.709 ± 0.11 |
| TPKTTGRPCDRT | 0.69 ± 0.0098 |
| TPLNPDSLDRPT | 0.657 ± 0.0097 |
| TPLNPLYCPPTP | 0.6384 ± 0.0061 |
| TPLSPPALPPPS | 0.659 ± 0.074 |

| Sequence | protein stability index |
| --- | --- |
| TPLVLTLLTRRP | 0.709 ± 0.054 |
| TPPACTRIPPAN | 0.777 ± 0.12 |
| TPPLPPPPPPIH | 0.7413 ± 0.0029 |
| TPPPPAPSPPPP | 0.761 ± 0.059 |
| TPPPSLPPPPPP | 0.627 ± 0.07 |
| TPPRHTRTSQTV | 0.648 ± 0.0083 |
| TPRPRRNCGPGP | 0.717 ± 0.2 |
| TPSAPPPTHPYP | 0.684 ± 0.036 |
| TPSPPTLHPPPP | 0.691 ± 0.023 |
| TPSRLPPPLRSP | 0.703 ± 0.004 |
| TPTRPLSSALRL | 0.697 ± 0.05 |
| TPVAPGLSPPPL | 0.659 ± 0.066 |
| TQKKQKRKDQQR | 0.654 ± 0.01 |
| TQPDLAPPLPRS | 0.65 ± 0.017 |
| TQRLPTPPSIPL | 0.672 ± 0.017 |
| TQSSADCFTLDA | 0.719 ± 0.052 |
| TQYMRVVQAKPD | 0.659 ± 0.055 |
| TRDTEKTGRREP | 0.715 ± 0.0013 |
| TRFLRCACCFVC | 0.565 ± 0.036 |
| TRGSRGARGGGW | 0.716 ± 0.012 |
| TRKFATPRITVV | 0.6939 ± 0.0038 |
| TRKQSVIRIRMR | 0.653 ± 0.0082 |
| TRLAGINGLLSA | 0.689 ± 0.022 |

| Sequence | protein stability index |
| --- | --- |
| TRLDLIDSLRHL | 0.731 ± 0.044 |
| TRLLPQRPLGGV | 0.717 ± 0.046 |
| TRMPTRRNEQIY | 0.683 ± 0.047 |
| TRMRWCGSGVKN | 0.809 ± 0.067 |
| TRPLIRRRHWID | 0.697 ± 0.025 |
| TRPSRRPPRPSS | 0.753 ± 0.22 |
| TRPTPTRADCFG | 0.685 ± 0.026 |
| TRQRSDRPRAPR | 0.6523 ± 0.00075 |
| TRRAAARAVSAR | 0.7 ± 0.066 |
| TRRFGSIINWVG | 0.59 ± 0.065 |
| TRRGPAGNKPRL | 0.749 ± 0.0092 |
| TRSADGFLGVMV | 0.739 ± 0.0092 |
| TRSDILGAERWG | 0.6794 ± 0.0033 |
| TRSQTASRSPTG | 0.672 ± 0.017 |
| TRTELGKRWIRR | 0.697 ± 0.061 |
| TRYKSMRAGVAG | 0.674 ± 0.067 |
| TSAEYKIETIFT | 0.688 ± 0.036 |
| TSAPPPPPPPPP | 0.608 ± 0.021 |
| TSAPRGNGKPEQ | 0.678 ± 0.016 |
| TSCPPPLAPSYD | 0.6909 ± 0.0045 |
| TSDPFGRPPETN | 0.643 ± 0.1 |
| TSGTPSRTHTLR | 0.612 ± 0.025 |
| TSLAPLPAPLRR | 0.725 ± 0.031 |

| Sequence | protein stability index |
| --- | --- |
| TSPPPPSPPAHH | 0.625 ± 0.024 |
| TSPPPPSPPPPP | 0.785 ± 0.13 |
| TSSEREGHYCVR | 0.693 ± 0.034 |
| TSTTRRGPRSRF | 0.8168 ± 0.0029 |
| TTEESGGEGEGG | 0.664 ± 0.014 |
| TTKRQKRKKKQR | 0.633 ± 0.015 |
| TTLATVLRTFPG | 0.724 ± 0.031 |
| TTRALEAPARPN | 0.6518 ± 0.0054 |
| TTRHPRLHYIDP | 0.674 ± 0.019 |
| TTTRSDALPRGG | 0.713 ± 0.024 |
| TTTYQLSQTITI | 0.646 ± 0.041 |
| TVATTIRVTKVV | 0.582 ± 0.022 |
| TVFFVLGTESRV | 0.664 ± 0.032 |
| TVFPVLTTVEGL | 0.688 ± 0.03 |
| TVHTILYVPDEL | 0.677 ± 0.021 |
| TVIKMEKKKDGG | 0.6691 ± 0.0047 |
| TVKSCGRTLFSW | 0.6874 ± 0.0051 |
| TVLRPKERQEHN | 0.721 ± 0.038 |
| TVPLPPPPFLDS | 0.772 ± 0.042 |
| TVPNLTPALPPL | 0.525 ± 0.11 |
| TVRWRRGTGGAR | 0.704 ± 0.019 |
| TVTPAARTWHGR | 0.67782 ± 0.00032 |
